Reference: the supplement of paper PMC10065799, “High-throughput profiling of sequence recognition by tyrosine kinases and SH2 domains using bacterial peptide display” (eLife, 2023)

Columns and labels:
c-Src SH2 = assay: SH2 binding enrichment of the phosphorylated peptide, bacterial display (enrichment ratio); higher = better substrate or ligand; peptides without Tyr show the background
SHP2-C SH2 = assay: as above
Grb2 SH2 = Grb2 SH2 (UniProt P62993); assay: as above
MERTK = MERTK (UniProt Q12866); assay: phosphorylation enrichment, bacterial display (enrichment ratio); higher = better substrate or ligand; peptides without Tyr show the background
FGFR1 = FGFR1 (UniProt P11362); assay: as above
Fyn = Fyn (UniProt P06241); assay: as above
c-Abl (mouse) = assay: as above
c-Src = assay: as above
EPHB1 = EPHB1 (UniProt P54762); assay: as above
Fes = Fes (UniProt P07332); assay: as above
Jak2 = Jak2 (UniProt O60674); assay: as above
Fer (mouse) = assay: as above
Hck = Hck (UniProt P08631); assay: as above
AncSZ = assay: as above
FGFR3 = FGFR3 (UniProt P22607); assay: as above
EPHB2 = EPHB2 (UniProt P29323); assay: as above
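Throughout, for SH2 binding enrichment of the phosphorylated peptide, bacterial display: peptide library displayed on the E. coli surface as eCPX fusions, selected cells deep-sequenced, score is each peptide's frequency after selection divided by its frequency in the input.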
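Throughout, for phosphorylation enrichment, bacterial display: 11-residue human phosphosite peptides and single-mutation variants displayed on the E. coli surface, counted by deep sequencing, each peptide's frequency after selection divided by its frequency in the unselected input library; frequency after pTyr selection over input frequency; kinase dosed for 20-30% of maximal phosphorylation in three min.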

Sequence of FGFR1 (P11362 whole entry, looked up): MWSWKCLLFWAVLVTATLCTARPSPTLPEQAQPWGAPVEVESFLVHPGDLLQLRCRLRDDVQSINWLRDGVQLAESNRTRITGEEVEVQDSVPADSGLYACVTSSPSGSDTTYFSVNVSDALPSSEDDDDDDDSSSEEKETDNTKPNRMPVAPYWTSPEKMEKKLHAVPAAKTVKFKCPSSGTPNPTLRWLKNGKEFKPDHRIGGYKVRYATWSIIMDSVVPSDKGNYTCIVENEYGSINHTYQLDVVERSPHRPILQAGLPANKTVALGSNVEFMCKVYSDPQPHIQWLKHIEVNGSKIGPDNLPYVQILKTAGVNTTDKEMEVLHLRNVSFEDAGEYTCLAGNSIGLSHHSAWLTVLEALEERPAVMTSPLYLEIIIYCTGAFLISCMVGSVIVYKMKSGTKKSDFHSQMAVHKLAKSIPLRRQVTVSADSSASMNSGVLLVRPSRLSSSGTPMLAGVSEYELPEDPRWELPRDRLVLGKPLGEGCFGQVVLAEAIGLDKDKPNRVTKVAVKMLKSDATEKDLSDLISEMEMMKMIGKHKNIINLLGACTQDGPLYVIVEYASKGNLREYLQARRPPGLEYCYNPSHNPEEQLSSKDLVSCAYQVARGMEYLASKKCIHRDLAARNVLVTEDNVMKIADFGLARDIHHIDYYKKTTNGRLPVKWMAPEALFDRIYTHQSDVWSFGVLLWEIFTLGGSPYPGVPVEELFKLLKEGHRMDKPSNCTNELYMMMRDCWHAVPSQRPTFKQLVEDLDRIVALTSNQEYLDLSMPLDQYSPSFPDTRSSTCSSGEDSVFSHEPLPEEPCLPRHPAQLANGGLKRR
Sequence of Fyn (P06241 whole entry, looked up): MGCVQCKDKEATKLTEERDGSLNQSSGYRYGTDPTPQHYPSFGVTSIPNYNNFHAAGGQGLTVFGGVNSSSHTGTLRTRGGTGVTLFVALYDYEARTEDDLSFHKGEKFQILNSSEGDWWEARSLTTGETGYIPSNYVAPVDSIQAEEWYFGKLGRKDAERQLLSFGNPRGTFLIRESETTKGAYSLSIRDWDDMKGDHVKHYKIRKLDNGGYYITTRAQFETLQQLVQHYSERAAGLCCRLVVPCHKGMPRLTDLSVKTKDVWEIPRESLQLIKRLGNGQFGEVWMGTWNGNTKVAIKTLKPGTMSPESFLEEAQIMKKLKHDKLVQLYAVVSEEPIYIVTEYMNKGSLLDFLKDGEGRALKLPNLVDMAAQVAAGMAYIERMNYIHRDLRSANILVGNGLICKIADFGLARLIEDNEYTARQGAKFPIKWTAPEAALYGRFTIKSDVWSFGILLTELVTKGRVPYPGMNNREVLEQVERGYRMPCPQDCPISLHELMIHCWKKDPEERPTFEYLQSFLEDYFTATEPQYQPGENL
Sequence of EPHB1 (P54762 whole entry, looked up): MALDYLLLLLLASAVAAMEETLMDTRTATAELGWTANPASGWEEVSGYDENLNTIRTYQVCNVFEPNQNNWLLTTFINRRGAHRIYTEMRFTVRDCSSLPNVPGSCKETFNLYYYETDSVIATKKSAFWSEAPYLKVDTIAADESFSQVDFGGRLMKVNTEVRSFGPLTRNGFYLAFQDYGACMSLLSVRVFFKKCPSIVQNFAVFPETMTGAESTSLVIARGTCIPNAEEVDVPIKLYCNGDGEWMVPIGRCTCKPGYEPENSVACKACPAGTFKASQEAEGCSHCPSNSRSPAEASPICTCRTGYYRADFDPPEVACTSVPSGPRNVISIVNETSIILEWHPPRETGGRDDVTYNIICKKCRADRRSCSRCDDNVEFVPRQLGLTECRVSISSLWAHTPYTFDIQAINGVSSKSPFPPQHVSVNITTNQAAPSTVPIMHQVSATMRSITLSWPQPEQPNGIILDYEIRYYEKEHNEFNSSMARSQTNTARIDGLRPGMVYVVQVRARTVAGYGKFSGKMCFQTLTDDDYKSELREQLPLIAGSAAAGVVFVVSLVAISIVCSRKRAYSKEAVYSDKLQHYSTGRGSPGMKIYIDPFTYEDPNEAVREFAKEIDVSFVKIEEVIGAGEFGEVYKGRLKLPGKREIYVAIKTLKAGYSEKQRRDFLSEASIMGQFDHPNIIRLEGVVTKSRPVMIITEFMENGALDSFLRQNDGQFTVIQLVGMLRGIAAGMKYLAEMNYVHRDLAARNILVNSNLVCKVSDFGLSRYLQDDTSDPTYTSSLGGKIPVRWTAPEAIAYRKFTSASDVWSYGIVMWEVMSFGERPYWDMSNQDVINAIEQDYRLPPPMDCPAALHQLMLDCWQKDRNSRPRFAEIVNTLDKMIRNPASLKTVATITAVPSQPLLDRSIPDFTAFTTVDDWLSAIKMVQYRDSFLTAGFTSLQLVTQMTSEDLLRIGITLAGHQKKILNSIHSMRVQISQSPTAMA
Sequence of EPHB2 (P29323 whole entry, looked up, the tested form may be a part): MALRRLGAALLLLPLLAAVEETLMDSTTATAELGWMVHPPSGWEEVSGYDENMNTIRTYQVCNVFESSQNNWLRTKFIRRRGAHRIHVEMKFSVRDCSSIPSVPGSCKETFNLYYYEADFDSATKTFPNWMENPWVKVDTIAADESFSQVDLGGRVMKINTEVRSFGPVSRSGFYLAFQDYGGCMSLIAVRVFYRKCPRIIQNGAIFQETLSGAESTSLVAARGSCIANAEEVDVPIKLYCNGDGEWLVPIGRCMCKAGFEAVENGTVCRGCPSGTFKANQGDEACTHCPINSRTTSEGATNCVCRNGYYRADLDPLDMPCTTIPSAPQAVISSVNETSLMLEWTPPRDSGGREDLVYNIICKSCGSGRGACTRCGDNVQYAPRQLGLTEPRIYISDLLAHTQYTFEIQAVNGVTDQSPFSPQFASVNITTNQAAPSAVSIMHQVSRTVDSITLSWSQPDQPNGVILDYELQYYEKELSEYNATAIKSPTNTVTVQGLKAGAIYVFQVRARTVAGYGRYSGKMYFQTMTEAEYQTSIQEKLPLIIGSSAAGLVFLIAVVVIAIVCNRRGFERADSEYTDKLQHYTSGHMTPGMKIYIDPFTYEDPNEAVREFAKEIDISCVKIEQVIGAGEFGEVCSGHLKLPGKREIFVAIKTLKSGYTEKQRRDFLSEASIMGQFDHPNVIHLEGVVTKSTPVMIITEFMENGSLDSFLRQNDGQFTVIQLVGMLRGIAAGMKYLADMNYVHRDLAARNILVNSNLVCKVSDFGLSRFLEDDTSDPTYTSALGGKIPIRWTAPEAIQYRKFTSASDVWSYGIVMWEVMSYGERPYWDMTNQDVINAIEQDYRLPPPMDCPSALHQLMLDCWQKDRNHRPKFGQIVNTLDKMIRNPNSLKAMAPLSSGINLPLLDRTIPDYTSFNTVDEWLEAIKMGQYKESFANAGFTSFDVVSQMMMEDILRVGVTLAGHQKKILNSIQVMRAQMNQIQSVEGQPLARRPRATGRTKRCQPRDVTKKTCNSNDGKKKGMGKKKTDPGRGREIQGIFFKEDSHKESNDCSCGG
Sequence of Jak2 (O60674 whole entry, looked up): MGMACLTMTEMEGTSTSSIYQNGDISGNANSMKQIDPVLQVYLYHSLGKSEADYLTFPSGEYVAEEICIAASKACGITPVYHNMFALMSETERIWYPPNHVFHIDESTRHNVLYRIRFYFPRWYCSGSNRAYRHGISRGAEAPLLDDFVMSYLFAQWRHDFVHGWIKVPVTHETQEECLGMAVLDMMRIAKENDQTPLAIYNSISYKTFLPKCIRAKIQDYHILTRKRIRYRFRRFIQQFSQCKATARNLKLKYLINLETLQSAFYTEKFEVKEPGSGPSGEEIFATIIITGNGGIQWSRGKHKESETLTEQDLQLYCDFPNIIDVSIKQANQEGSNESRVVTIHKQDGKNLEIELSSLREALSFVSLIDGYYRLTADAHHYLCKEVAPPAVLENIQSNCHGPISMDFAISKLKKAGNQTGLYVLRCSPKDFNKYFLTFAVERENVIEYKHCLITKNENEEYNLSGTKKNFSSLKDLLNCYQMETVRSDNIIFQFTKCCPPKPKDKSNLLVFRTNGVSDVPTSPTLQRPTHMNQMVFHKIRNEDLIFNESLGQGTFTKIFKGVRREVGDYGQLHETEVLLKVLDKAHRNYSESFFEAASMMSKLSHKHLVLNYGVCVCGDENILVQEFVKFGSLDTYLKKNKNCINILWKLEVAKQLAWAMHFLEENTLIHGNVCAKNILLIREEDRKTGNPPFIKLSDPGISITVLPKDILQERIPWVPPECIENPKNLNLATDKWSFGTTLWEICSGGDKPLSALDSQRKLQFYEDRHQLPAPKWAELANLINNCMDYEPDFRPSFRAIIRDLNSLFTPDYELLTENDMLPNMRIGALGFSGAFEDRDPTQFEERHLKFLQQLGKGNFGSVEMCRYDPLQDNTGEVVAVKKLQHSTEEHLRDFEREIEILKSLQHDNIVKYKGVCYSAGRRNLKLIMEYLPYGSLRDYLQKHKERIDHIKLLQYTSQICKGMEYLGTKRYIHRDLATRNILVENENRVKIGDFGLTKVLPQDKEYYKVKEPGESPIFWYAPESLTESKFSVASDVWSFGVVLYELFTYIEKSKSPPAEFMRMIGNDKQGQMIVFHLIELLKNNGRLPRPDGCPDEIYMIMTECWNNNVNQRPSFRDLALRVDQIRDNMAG
Sequence of Hck (P08631 whole entry, looked up): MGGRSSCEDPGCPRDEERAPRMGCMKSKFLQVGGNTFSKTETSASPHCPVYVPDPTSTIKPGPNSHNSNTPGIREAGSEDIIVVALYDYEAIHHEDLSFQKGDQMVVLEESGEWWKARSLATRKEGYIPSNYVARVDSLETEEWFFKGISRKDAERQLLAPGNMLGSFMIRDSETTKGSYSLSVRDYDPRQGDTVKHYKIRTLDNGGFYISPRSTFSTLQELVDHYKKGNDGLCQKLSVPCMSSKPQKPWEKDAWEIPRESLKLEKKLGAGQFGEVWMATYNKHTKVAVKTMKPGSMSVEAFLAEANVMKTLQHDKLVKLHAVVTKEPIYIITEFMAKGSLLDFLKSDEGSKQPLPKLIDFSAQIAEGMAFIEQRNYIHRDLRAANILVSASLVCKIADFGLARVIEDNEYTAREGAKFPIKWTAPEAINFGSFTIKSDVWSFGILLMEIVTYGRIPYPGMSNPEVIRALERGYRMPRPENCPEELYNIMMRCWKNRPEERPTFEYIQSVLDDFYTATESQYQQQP

| Sequence | SH2 binding enrichment (c-Src SH2) | SH2 binding enrichment (SHP2-C SH2) | SH2 binding enrichment (Grb2 SH2) | phosphorylation enrichment (MERTK) | phosphorylation enrichment (FGFR1) | phosphorylation enrichment (Fyn) | phosphorylation enrichment (c-Abl (mouse)) | phosphorylation enrichment (c-Src) | phosphorylation enrichment (EPHB1) | phosphorylation enrichment (Fes) | phosphorylation enrichment (Jak2) | phosphorylation enrichment (Fer (mouse)) | phosphorylation enrichment (Hck) | phosphorylation enrichment (AncSZ) | phosphorylation enrichment (FGFR3) | phosphorylation enrichment (EPHB2) |
| --- | --- | --- | --- | --- | --- | --- | --- | --- | --- | --- | --- | --- | --- | --- | --- | --- |
| FYDANYDGKEY [MAPRE2_Y162] | 0.725 | 0.473 | 0.823 | 1.17 | 0.699 | 0.642 | 0.712 | 0.941 | 0.63 | 1.37 | 1.14 | 0.627 | 0.83 | 1.22 | 0.796 | 1.23 |
| IFQASYFRRGD [LTK_Y676_R673Q_YF] | 0.48 | 0.607 | 0.835 | 0.628 | 0.544 | 0.499 | 0.789 | 0.543 | 0.516 | 1.23 | 1.18 | 0.416 | 0.517 | 1.05 | 0.619 | 0.518 |
| FCIDHYLGKEM [G6PD_Y202_R198C_YF] | 0.735 | 0.969 | 0.836 | 0.375 | 0.397 | 0.657 | 0.49 | 0.394 | 0.581 | 0.901 | 0.63 | 0.633 | 0.43 | 0.725 | 0.569 | 0.505 |
| IGRHAYGDQYR [IDH1_Y135] | 0.657 | 0.681 | 1.03 | 0.314 | 0.398 | 0.371 | 0.462 | 0.381 | 0.434 | 0.599 | 0.534 | 0.417 | 0.327 | 0.56 | 0.447 | 0.406 |
| YNNYGYGSDGF [HNRNPH3_Y161_N163S] | 0.969 | 0.658 | 1.49 | 0.652 | 0.673 | 0.507 | 0.55 | 0.505 | 2.96 | 0.784 | 0.631 | 0.458 | 0.521 | 0.735 | 0.683 | 5.3 |
| KELAKYFKLHH [AK7_Y390_N389K_YF] | 0.497 | 0.635 | 0.759 | 0.51 | 0.456 | 0.505 | 0.439 | 0.493 | 0.394 | 0.626 | 0.487 | 0.466 | 0.484 | 0.596 | 0.543 | 0.459 |
| TDLAYYLVRKG [ASL_Y376] | 0.795 | 1.41 | 0.95 | 0.684 | 3.17 | 0.539 | 0.672 | 0.783 | 0.468 | 0.962 | 2.05 | 0.48 | 0.716 | 0.963 | 2.42 | 0.629 |
| RKETFYTLSCR [GUCY2C_Y681] | 0.749 | 0.821 | 0.996 | 6.83 | 1.49 | 2.44 | 1.29 | 2.02 | 1.17 | 2.07 | 1.03 | 1 | 1.03 | 1.32 | 1.39 | 1.27 |
| SMAKFYASEIA [ACADSB_Y373_YF] | 0.393 | 0.674 | 0.788 | 0.437 | 0.513 | 0.434 | 0.588 | 0.464 | 0.403 | 0.803 | 0.619 | 0.61 | 0.518 | 0.686 | 0.604 | 0.472 |
| FGLTLYPNSRE [MEP1A_Y472_V469L] | 0.661 | 0.893 | 1.12 | 0.385 | 0.682 | 0.471 | 0.629 | 0.394 | 0.55 | 1.09 | 0.68 | 0.413 | 0.397 | 0.911 | 0.698 | 0.56 |
| QRPGPYDRPGA [HNRNPH2_Y210] | 1.05 | 1.03 | 0.972 | 0.426 | 0.43 | 0.322 | 0.496 | 0.386 | 0.453 | 0.812 | 0.439 | 0.281 | 0.705 | 0.556 | 0.48 | 0.466 |
| MLEVPYVDRNS [F10_Y384] | 0.457 | 0.708 | 0.724 | 0.317 | 0.411 | 0.382 | 0.611 | 0.395 | 0.499 | 0.89 | 0.789 | 0.434 | 0.453 | 0.847 | 0.643 | 0.494 |
| AHAGEYGAVAL [HBA1_Y25_E28V] | 0.486 | 0.6 | 0.88 | 0.389 | 0.421 | 5.54 | 0.517 | 2.95 | 0.346 | 0.594 | 0.511 | 0.672 | 3.27 | 0.598 | 0.509 | 0.582 |
| CLAKMYYSAVE [CP_Y539_D544E] | 2.57 | 0.971 | 0.828 | 2.82 | 0.861 | 0.563 | 0.651 | 0.725 | 0.863 | 1.19 | 0.831 | 1.35 | 0.606 | 1.04 | 0.885 | 0.901 |
| IFGVSYDEYRY [CFTR_Y512] | 1.36 | 0.896 | 0.776 | 0.434 | 0.688 | 0.644 | 0.638 | 1.27 | 0.557 | 1.05 | 0.882 | 0.496 | 0.617 | 0.932 | 0.664 | 0.504 |
| FYVVRYCWLRR [MPZ_Y181] | 0.545 | 0.565 | 0.761 | 0.604 | 0.595 | 0.62 | 0.758 | 0.612 | 0.496 | 0.747 | 0.596 | 0.51 | 0.567 | 0.869 | 0.614 | 0.508 |
| ARQEEYSAMRD [KRAS_Y64_G60R] | 0.804 | 0.729 | 0.824 | 0.497 | 0.518 | 0.429 | 0.837 | 0.497 | 0.508 | 0.902 | 0.896 | 0.387 | 0.488 | 0.962 | 0.584 | 0.563 |
| WQQQSYLDLGI [CTNNB1_Y30_S33L] | 0.607 | 0.766 | 1.03 | 0.511 | 1.76 | 0.545 | 0.685 | 0.517 | 0.719 | 0.918 | 1.35 | 0.515 | 0.478 | 0.831 | 1.36 | 0.593 |
| QADVTYVNTQL [MERTK_Y872_I871T] | 0.964 | 0.84 | 14.4 | 0.522 | 0.504 | 0.518 | 1.11 | 0.682 | 0.717 | 0.942 | 0.703 | 0.714 | 0.518 | 1.11 | 0.606 | 0.584 |
| YLGRDYLETLM [DUS3L_Y610] | 0.563 | 0.803 | 0.748 | 0.524 | 2.74 | 0.514 | 0.898 | 0.538 | 0.617 | 1.03 | 1.06 | 0.637 | 0.829 | 0.937 | 2.29 | 0.544 |
| LANNEYYFRVC | 0.42 | 0.562 | 0.539 | 0.823 | 3.72 | 0.743 | 0.573 | 0.516 | 0.682 | 1.27 | 1.51 | 0.62 | 0.794 | 1.6 | 3.11 | 0.993 |

Further lines, with some results ahead:

| SH2 binding enrichment (c-Src SH2) | SH2 binding enrichment (SHP2-C SH2) | SH2 binding enrichment (Grb2 SH2) | Sequence | phosphorylation enrichment (MERTK) | phosphorylation enrichment (FGFR1) | phosphorylation enrichment (Fyn) | phosphorylation enrichment (c-Abl (mouse)) | phosphorylation enrichment (c-Src) | phosphorylation enrichment (EPHB1) | phosphorylation enrichment (Fes) | phosphorylation enrichment (Jak2) | phosphorylation enrichment (Fer (mouse)) | phosphorylation enrichment (Hck) | phosphorylation enrichment (AncSZ) | phosphorylation enrichment (FGFR3) | phosphorylation enrichment (EPHB2) |
| --- | --- | --- | --- | --- | --- | --- | --- | --- | --- | --- | --- | --- | --- | --- | --- | --- |
| 1.62 | 1.38 | 1.36 | FSCLPCGRLAF [SLC52A2_Y305_Y305C_YF] | 0.532 | 0.657 | 0.354 | 0.55 | 0.33 | 0.442 | 0.868 | 0.67 | 0.423 | 0.389 | 0.752 | 0.542 | 0.404 |
| 0.6 | 0.494 | 1.05 | PESIMYRKFTT [NTRK3_Y744] | 0.616 | 0.384 | 0.67 | 0.777 | 0.488 | 0.534 | 0.789 | 0.666 | 0.485 | 0.517 | 3.03 | 0.667 | 0.552 |
| 0.993 | 3.87 | 1.15 | SEKISYVYMKR [SSX7_Y48_L43S] | 0.385 | 0.6 | 0.469 | 0.538 | 0.444 | 0.553 | 0.967 | 0.964 | 0.387 | 0.479 | 0.912 | 0.748 | 0.504 |
| 1.39 | 0.765 | 0.95 | CVAARYMDMKG [WFIKKN2_Y93_V96M] | 0.446 | 0.36 | 0.439 | 0.542 | 0.39 | 0.394 | 0.984 | 0.654 | 0.431 | 0.471 | 0.755 | 0.637 | 0.428 |
| 0.676 | 1.12 | 0.922 | MKGEYYRYLAE [YWHAG_Y131_D129E] | 0.471 | 4.14 | 0.606 | 0.82 | 0.795 | 0.685 | 1.07 | 1.42 | 0.429 | 0.732 | 1.12 | 2.92 | 0.779 |
| 0.462 | 0.627 | 0.881 | SVMAEYGLFAA [VSX2_Y219_G223A_YF] | 0.396 | 0.505 | 5.82 | 0.675 | 4.95 | 0.484 | 0.845 | 0.734 | 0.664 | 2.76 | 0.822 | 0.564 | 0.578 |
| 0.472 | 0.54 | 0.969 | GVKLTYGDAQN [SLC28A1_Y404] | 0.397 | 0.53 | 0.479 | 0.813 | 0.499 | 0.379 | 0.872 | 1.63 | 0.397 | 0.369 | 0.726 | 0.473 | 0.45 |
| 1.2 | 0.908 | 1.16 | RGFRVYFTPDS [PTPRF_Y450_YF] | 0.538 | 0.545 | 0.4 | 1.2 | 0.714 | 0.583 | 1.71 | 1.76 | 0.469 | 0.542 | 1.31 | 0.877 | 0.749 |
| 0.583 | 0.754 | 0.813 | VRFTEYETQVK [TARDBP_Y155] | 0.401 | 0.413 | 0.4 | 0.629 | 0.406 | 0.53 | 0.896 | 0.761 | 0.431 | 0.519 | 0.791 | 0.542 | 1.01 |
| 0.608 | 0.903 | 0.755 | AFLQTYAHEVS [PCDHGA5_Y753_S754A] | 0.503 | 0.621 | 0.49 | 0.693 | 0.474 | 0.455 | 0.985 | 0.786 | 0.521 | 0.506 | 0.896 | 0.617 | 0.565 |
| 0.555 | 0.64 | 0.824 | AFSLKYDQQTQ [SYTL4_Y366_E367D] | 0.406 | 0.539 | 0.522 | 0.716 | 0.48 | 0.484 | 1.14 | 1.03 | 0.485 | 0.614 | 1.03 | 0.784 | 0.69 |
| 0.621 | 0.572 | 0.707 | RNYDTYTAGLS [RHBDD1_Y264] | 0.841 | 0.602 | 1.49 | 0.729 | 1.39 | 7.39 | 0.901 | 0.677 | 0.707 | 5.02 | 0.955 | 0.438 | 14.6 |
